Assay results published in patent publication US20180064825A1 (INSERM INSTITUT NATIONAL DE LA SANTE ET DE LA RECHERCHE …, published 2018).

Experiments:
[1] = target: T1, human PD-L1 (Programmed Cell Death 1 Ligand 1) (human, UniProt Q9NZQ7 19-290); assay: Scatchard analysis on cells (MDA-MB-231 used for binding assays), 3-3000 pM ^111In-PD-L1.3.1, 4 h on ice, gamma counter; 111In-labeled antibody; Scatchard affinity on MDA-MB-231 cells
T1 construct: whole, on cells; Endogenous PD-L1 on breast cancer cell lines; also called CD274; PDCD1LG1
Procedure: (§1) Cells were cultured to confluency in six-well plates and were incubated for 4 h on ice with increasing concentrations ¹¹¹In-PD-L1.3.1 (3-3000 pM) in 1 ml RPMI1640 containing 0.5% BSA. Non-specific binding was determined by co-incubation with 100 nM PD-L1.3.1. After incubation, cells were washed with PBS and the cell-associated activity was measured in a shielded well-type gamma counter. The specific binding (total binding−nonspecific binding) was plotted against the bound/free ratio. Data were analyzed by linear regression to determine PD-L1 receptor density per cell and to determine the Kd of ¹¹¹In-PD-L1.3.1.

[2] = target: T1, human PD-L1 (Programmed Cell Death 1 …); assay: saturation binding / Scatchard analysis on cells, 3-3000 pM ^111In-PD-L1.3.1 in 1 ml, 4 h on ice, non-specific binding (100 nM PD-L1.3.1) subtracted; the panel does not name the cell line (MDA-MB-231 cells were used in subsequent binding assays)
Procedure: as §1

[3] = target: T1, human PD-L1 (Programmed Cell Death 1 …); assay: competition on MDA-MB-231 cells, 4 h on ice; unlabeled PD-L1.3.1 (1-1000 pM) against 20 pM ^111In-PD-L1.3.1 as competitor; gamma counter; unlabeled antibody; competition IC50 on MDA-MB-231 cells
Procedure: MDA-MB-231 cells were cultured to confluency in six-well plates. The 50% inhibitory concentration (IC₅₀) of PD-L1.3.1 blocking of ¹¹¹In-PD-L1.3.1 binding was determined by incubating the cells for 4 h on ice in 1 ml RPMI1640 0.5% BSA, containing 20 pM ¹¹¹In-PD-L1.3.1 (1 kBq) and increasing concentrations of unlabeled PD-L1.3.1 (1-1000 pM). After incubation, cells were washed with PBS and the cell-associated activity was measured in a gamma counter. The IC₅₀ was defined as the antibody concentration that was required to inhibit binding of the radio labeled antibody by 50%. IC₅₀ values were calculated using GraphPad Prism.

T1 sequence (Q9NZQ7 19-290): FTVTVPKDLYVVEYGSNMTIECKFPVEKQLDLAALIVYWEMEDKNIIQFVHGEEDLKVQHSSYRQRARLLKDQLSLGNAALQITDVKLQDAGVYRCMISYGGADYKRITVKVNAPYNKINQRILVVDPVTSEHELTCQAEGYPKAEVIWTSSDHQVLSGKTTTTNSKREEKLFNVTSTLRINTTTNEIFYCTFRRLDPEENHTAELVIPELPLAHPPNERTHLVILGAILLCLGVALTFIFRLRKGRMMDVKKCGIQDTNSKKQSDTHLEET

B1: ^111In-DTPA-PD-L1.3.1 (antibody, V domains shown)
VH: EVQLQQSGTELVKPGASVKLSCTTSGFNIQDTYMHWVKQRPEQGLEWIGWIDPANGNTKYDPKFQGKATIIADTSSNTAYLQLRGLTSEDTAVYYCARSGVSTAHFDYWGQGTTLTVSS
VL: QIVLSQSPAILSASPGEKVTMTCRASSSVSFMHWYQQKPGSSPKPWIYATSNLASGVPTRFSGSGSGTSYSLTLSRVEAEDAATYYCQQWSSYPRTFGGGTKLEIK
modifications: ITC-DTPA conjugated and chelating ^111In; residues and chain not stated
[1]
  Kd: 970 pM
[2]
  Kd: 1000 pM

B2: PD-L1.3.1 antibody (murine monoclonal IgG1, unlabeled) (antibody, V domains shown)
VH: EVQLQQSGTELVKPGASVKLSCTTSGFNIQDTYMHWVKQRPEQGLEWIGWIDPANGNTKYDPKFQGKATIIADTSSNTAYLQLRGLTSEDTAVYYCARSGVSTAHFDYWGQGTTLTVSS
VL: QIVLSQSPAILSASPGEKVTMTCRASSSVSFMHWYQQKPGSSPKPWIYATSNLASGVPTRFSGSGSGTSYSLTLSRVEAEDAATYYCQQWSSYPRTFGGGTKLEIK
notes: also called PD-L1.3.1 mAb; unlabeled PD-L1.3.1
[3]
  IC50: 150 pM
